{
  "source": "paper PMC5028025",
  "key": {"citrate synthase [1]": {"target": "citrate synthase (UniProt P00889)", "sequence (P00889 28-464)": "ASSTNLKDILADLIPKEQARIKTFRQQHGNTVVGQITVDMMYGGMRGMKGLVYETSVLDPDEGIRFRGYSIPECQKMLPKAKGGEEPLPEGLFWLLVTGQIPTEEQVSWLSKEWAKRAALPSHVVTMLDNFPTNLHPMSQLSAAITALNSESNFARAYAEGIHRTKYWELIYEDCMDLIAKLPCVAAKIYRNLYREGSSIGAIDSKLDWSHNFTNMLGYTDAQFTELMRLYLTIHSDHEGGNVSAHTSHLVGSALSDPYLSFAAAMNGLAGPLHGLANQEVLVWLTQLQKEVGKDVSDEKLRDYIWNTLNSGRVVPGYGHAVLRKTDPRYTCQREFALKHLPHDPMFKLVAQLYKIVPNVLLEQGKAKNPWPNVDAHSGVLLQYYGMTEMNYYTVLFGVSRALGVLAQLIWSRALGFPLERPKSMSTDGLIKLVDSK"}, "malate dehydrogenase": {"target": "malate dehydrogenase (UniProt P00346)", "sequence (P00346 25-338)": "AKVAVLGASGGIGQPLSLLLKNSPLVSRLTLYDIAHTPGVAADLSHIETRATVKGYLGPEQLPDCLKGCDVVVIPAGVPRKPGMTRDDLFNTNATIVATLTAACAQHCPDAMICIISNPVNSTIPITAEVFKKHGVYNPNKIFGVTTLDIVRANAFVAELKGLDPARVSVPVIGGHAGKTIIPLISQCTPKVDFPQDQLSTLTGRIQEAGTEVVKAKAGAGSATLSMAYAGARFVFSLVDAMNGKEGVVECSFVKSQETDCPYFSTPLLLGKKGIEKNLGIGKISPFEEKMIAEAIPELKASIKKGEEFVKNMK"}, "[2]": {"target": "luciferase [luciferase: P08659]"}, "citrate synthase [3]": {"target": "citrate synthase (UniProt P00889)", "remark": "listed apart in the source"}, "[4]": {"target": "Synechococcus sp. phage S-ShM2 18 kDa small heat shock protein (HspSP-ShM2) (cyanophage S-ShM2 (Synechococcus sp. phage))", "experiment": "SEC; Superdex 200 Increase 10/300 GL, TEN buffer (50 mM Tris-HCl pH 8.0, 0.1 mM EDTA, 150 mM NaCl) without detergent, room temperature, 0.5 ml/min; HspSP-ShM2 alone at 30 and 60 uM (the ~200 kDa species only at 60 uM); masses from a standard curve"}},
  "data": [
    {"substance": "Synechococcus sp. phage S-ShM2 18 kDa small heat shock protein (HspSP-ShM2) (natural protein)", "values": [
      {"measurement": "decrease of the ability to prevent heat-induced aggregation of CS in the presence of 0.23 mM Triton X-100, at 5:1 and 10:1 HspSP-ShM2:CS (20% and 12%)", "setting": "citrate synthase [1]", "value": 20, "unit": "%"},
      {"measurement": "percent of heat-induced aggregation of MDH (light scattering at 320 nm, 90 min at 45°C, MDH alone = 100%) at 6:1 and 12:1 HspSP-ShM2:MDH (26.9 and 6.5%)", "setting": "malate dehydrogenase", "value": 26.9, "unit": "%"},
      {"measurement": "percent of heat-induced aggregation of Luc (light scattering at 320 nm, 30 min at 42°C, Luc alone = 100%) at 6:1 and 12:1 HspSP-ShM2:Luc (45.8 and 6.4%)", "setting": "[2]", "value": 45.8, "unit": "%"},
      {"measurement": "percent of heat-induced aggregation of CS (light scattering at 320 nm, 90 min at 45°C, CS alone = 100%) at 5:1 and 10:1 HspSP-ShM2:CS (41.6 and 8.17%)", "setting": "citrate synthase [3]", "value": 41.6, "unit": "%"},
      {"measurement": "stoichiometry N", "setting": "[4]", "value": 12}
    ]}
  ]
}
